The values below come from US20090192289A1 (Genentech, published 2009).

Where no end group is shown, it is not given here. The star is where a group is joined. Biotin = O=C1N[C@H]2[C@H](CS[C@H]2CCCCC(=O)*)N1

The target in test [1] is T1, phage-displayed Omi PDZ (phagemid p8hOmi) (human; M13 bacteriophage).
T1 construct: Multivalent display on phage; not shown: M13 gene-8 coat protein
T1 chain: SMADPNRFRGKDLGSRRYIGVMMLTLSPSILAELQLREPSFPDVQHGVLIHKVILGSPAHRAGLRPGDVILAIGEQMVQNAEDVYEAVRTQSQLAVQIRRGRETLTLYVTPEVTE
Description: phage selection and phage ELISA on NeutrAvidin-immobilized peptide. How it is done:
Library Sorting and Analysis—Phage from the libraries described above were propagated in E. coli XL1-blue with the addition of KO7 helper phage. After overnight growth at 37° C. (for peptide library) or 30° C. (for shotgun library), phage were concentrated by precipitation with PEG/NaCl and resuspended in PBS, 0.5% BSA, 0.1% Tween 20, as described previously(19). Phage solutions (10¹² phage/mL) were added to 96-well maxisorp immunoplates that had been coated with capture target and blocked with BSA. For shotgun library sorting, two different targets were used; for the display selection the target was an immobilized antibody that recognized the epitope tag fused to the N terminus of Omi PDZ, while for the function selection a biotinylated peptide that binds to Omi PDZ with high affinity (biotin-SWTMFWV) was immobilized on NeutrAvidin-coated plates. Following a 2 h incubation to allow for phage binding, the plates were washed 10 times with PBS, 0.05% Tween 20. Bound phage were eluted with 0.1 M HCl for 10 min and the eluent was neutralized with 1.0 M Tris base. Eluted phage were amplified in E. Coli XL1-blue and used for further rounds of selection.
Shotgun alanine-scanning of Omi PDZ domain—By superimposing the structure of Omi PDZ with the structure of Erbin PDZ-ligand complex(20), we identified a region that is directly involved or adjacent to the peptide binding site. […]

For test [2], the target named is T2, GST-Omi PDZ fusion protein (human, UniProt O43464 359-458).
T2 construct: also called GST-hOmiPDZ; hOmi PDZ domain; not shown: glutathione S-transferase (GST) encoded by plasmid pGEX6P-3
T2 sequence: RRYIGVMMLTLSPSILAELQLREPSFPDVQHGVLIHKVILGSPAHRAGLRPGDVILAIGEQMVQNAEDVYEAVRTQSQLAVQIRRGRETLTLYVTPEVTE
The experiment in a line: competition ELISA. How it is done:
(§1) Affinity Assays—The binding affinities of peptides for Omi PDZ were determined as IC₅₀ values using a previously described competition ELISA(18). The IC₅₀ value was defined as the concentration of peptide that blocked 50% of PDZ domain binding to immobilized peptide. Assay plates were prepared by immobilizing an amino-terminally biotinylated peptide (biotin-GWTMFWV) on maxisorp plates coated with NeuTravidin and blocked with BSA. A fixed concentration of GST-Omi PDZ fusion protein (20 nM) in PBS, 0.5% BSA, 0.1% Tween 20 (PBT buffer) was preincubated for 1 h with serial dilutions of peptide and then transferred to the assay plates. After 1 h incubation, the plates were washed with PBS, 0.05% Tween 20, incubated for 30 min with HRP/anti-GST antibody (1:10,000) in PBT buffer, washed again, and detected with 3,3′,5,5′-Tetramethyl-benzidine/H₂O₂ (TMB) peroxidase substrate.
In general terms: An ELISA detects its analyte on a solid surface through an enzyme-linked reagent.

The target of test [3] is T2, GST-Omi PDZ fusion protein. Description: competition ELISA, 20 nM GST-Omi PDZ, immobilized biotin-GWTMFWV as competitor. The protocol:
as §1

The target in test [4] is T2, GST-Omi PDZ fusion protein. Description: competition ELISA, immobilized biotin-GWTMFWV. How it is done: as §1

B1: biotin-SWTMFWV (peptide)
peptide: Biotin-SWTMFWV
notes: Immobilized on NeutrAvidin-coated plates for shotgun library sorting
In the case of B1, the binding result in test [1] was “binds”.

B2: hOmi_c1_A1 (peptide)
peptide: Ac-SWTMFWA-OH
notes: also called SWTMFWA
A word on the IC50: it is the concentration at which inhibition is half-maximal. Take B2: the “fold increase of IC50 vs SWTMFWV (hOmi_c1)” value in test [2] was found to be 3 fold. The IC50 in test [3] was 10.6 µM.

B3: hOmi_n1_t7 (peptide)
peptide: H-WWGGWLG-NH2
notes: also called WWGGWLG
Consider B3, for which the binding result in test [4] is recorded as “no binding”.

B4: hOmi_n1_t8 (peptide)
peptide: H-WGGWLG-NH2
notes: also called WGGWLG
With B4, in test [4], the binding result is listed as “no binding”.

B5: hOmi_n1_t3 (peptide)
peptide: H-SHWWGG-NH2
notes: also called SHWWGG
With B5, in test [4], the binding result was “no binding”.

B6: hOmi_n1_t4 (peptide)
peptide: H-SHWWG-NH2
notes: also called SHWWG
B6: in test [4], the binding result was “no binding”.

B7: PDZ-Opt (peptide)
peptide: Ac-GQYYFV-OH
notes: synthetic peptide, optimized ligand reported previously from a chemically synthesized library; also called GQYYFV
On to B7, for which the “fold lower affinity vs the optimized peptide derived from libC (hOmi_c1)” value in test [2] is 5 fold. The IC50 in test [3] was determined as 17.6 µM.
